Common to all, as to experiment: anti-GFP IP, LC-MS/MS spectral counts
The target in assay [1] is Beta-pix (UniProt Q14155). Particulars: reference: S1448A GFP-Scribble; sites S1448.
The target in assay [2] is Numa1 (UniProt Q14980). Particulars: sites S1448.
Assay [3] concerns the target Git1 (UniProt Q9Y2X7). The following applies: reference: S1448A GFP-Scribble; sites S1448.
Assay [4] addresses Vimentin (UniProt P08670). Particulars: reference: S1448A GFP-Scribble; sites S1448.
Setting [5] is: reference: wild type GFP-Scribble.

As to “Scribble (from UniProt Q14160) S1448D GFP-Scribble”, the “other: spectral counts” value in assay [1] is “same; reference 49”; in assay [2] (reference: S1448A GFP-Scribble), “stronger; reference 8”; in assay [2] (setting [5]) it was “same; reference 34”; in assay [3], “same; reference 72”; in assay [4], “same; reference 277”.

For “Scribble (from UniProt Q14160) S1448A GFP-Scribble”, the “other: spectral counts” value in assay [2] (setting [5]) is reported as “weaker; reference 34”.

These data come from paper PMC4919504.
